For one substance, Kd, koff and kon results are on record in paper PMC3868510.

Test [1] deals with soluble truncated αvβ8 integrin conjugated to alkaline phosphatase (UniProt P06756). The test is described as follows: SPR; Biacore 2000, CM-5 chip; MAb LS-C44264 to placental alkaline phosphatase immobilised by amine coupling and used to capture the soluble integrin-AP; gH/gL injected at 50 µl/min; 25°C; 10 mM HEPES-NaOH pH 7.4, 150 mM NaCl, 0.005% P20; kobs against gH/gL concentration, 1:1 Langmuir. For orientation: Surface plasmon resonance follows binding to a sensor surface in real time, without labels.
Chain of soluble truncated αvβ8 integrin conjugated to alkaline phosphatase (P06756 31-1048, chain 1 of 2): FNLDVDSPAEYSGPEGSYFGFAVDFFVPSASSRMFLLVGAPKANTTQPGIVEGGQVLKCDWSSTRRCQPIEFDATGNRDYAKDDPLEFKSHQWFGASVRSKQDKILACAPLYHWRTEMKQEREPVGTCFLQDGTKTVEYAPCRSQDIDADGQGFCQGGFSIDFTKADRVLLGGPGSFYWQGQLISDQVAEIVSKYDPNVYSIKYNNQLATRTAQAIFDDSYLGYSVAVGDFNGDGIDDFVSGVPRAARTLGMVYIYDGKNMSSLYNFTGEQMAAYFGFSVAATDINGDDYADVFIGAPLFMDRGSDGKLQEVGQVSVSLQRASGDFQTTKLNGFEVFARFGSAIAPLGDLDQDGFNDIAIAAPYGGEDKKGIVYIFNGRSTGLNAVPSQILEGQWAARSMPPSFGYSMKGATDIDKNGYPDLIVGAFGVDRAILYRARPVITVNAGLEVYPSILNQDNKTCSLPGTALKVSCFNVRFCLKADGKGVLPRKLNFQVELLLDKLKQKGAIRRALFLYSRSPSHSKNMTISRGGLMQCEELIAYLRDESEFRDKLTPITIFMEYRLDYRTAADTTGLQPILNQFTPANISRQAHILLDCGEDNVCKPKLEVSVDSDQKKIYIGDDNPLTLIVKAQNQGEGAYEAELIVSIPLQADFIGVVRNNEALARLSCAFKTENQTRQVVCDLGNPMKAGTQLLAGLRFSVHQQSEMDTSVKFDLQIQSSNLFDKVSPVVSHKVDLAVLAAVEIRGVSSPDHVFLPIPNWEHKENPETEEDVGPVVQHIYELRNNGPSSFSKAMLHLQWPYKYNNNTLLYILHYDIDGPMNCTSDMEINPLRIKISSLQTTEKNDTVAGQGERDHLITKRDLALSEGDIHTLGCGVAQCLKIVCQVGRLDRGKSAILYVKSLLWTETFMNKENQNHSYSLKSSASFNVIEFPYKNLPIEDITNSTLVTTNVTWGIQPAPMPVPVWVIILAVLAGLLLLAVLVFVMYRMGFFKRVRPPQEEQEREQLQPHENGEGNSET
Chain of soluble truncated αvβ8 integrin conjugated to alkaline phosphatase (P26012 43-684, chain 2 of 2, further chain): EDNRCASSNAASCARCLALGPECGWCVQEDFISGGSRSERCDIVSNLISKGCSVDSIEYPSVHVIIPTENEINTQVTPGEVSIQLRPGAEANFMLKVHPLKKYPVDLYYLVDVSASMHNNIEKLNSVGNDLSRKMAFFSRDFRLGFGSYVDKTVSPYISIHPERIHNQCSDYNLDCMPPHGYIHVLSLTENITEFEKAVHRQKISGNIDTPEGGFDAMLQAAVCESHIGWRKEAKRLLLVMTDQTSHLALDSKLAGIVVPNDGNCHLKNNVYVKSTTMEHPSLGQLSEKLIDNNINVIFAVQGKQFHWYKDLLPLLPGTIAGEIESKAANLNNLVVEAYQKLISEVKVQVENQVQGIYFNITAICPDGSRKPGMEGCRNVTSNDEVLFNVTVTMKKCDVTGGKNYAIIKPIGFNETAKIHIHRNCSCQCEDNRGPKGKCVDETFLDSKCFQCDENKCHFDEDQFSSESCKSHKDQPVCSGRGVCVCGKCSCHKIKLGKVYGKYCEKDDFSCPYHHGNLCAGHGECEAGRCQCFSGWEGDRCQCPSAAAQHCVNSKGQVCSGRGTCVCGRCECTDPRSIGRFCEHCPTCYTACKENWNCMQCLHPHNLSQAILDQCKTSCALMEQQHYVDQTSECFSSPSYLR

The target of test [2] is soluble truncated αvβ6 integrin conjugated to alkaline phosphatase (UniProt P06756). The test is described as above.
Chain of soluble truncated αvβ6 integrin conjugated to alkaline phosphatase (P06756 31-1048, chain 1 of 2): as the sequence (P06756 31-1048, chain 1 of 2) above
Chain of soluble truncated αvβ6 integrin conjugated to alkaline phosphatase (P18564 22-709, chain 2 of 2, further chain): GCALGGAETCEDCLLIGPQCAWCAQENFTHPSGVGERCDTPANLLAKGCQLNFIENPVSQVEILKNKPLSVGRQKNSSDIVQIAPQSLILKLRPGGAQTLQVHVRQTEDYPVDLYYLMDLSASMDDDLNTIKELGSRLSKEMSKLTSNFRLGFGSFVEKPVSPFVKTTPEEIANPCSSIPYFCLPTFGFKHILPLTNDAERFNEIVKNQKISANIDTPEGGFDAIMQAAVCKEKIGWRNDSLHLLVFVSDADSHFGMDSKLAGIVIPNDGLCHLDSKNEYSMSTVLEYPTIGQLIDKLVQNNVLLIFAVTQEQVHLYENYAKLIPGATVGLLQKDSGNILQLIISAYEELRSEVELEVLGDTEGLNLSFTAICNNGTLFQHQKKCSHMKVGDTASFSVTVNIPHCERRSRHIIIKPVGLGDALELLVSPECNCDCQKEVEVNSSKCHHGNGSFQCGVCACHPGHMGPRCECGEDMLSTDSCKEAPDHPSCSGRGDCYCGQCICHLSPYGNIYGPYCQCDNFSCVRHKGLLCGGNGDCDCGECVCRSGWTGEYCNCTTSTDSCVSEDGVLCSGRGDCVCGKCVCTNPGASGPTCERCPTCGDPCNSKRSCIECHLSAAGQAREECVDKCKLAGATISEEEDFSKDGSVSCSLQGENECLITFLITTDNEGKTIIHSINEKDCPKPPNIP

pKd: −log10 of the molar value.

For orientation: pKd means the negative decadic logarithm of the Kd, by convention in mol/L. As usually defined, the koff is the first-order rate constant of dissociation. Low readings indicate slow dissociation, high ones fast dissociation. For orientation: kon means the second-order rate constant of association. A lower kon goes with slow association.

For “soluble form of HSV gH/gL (gHt/gL) (from UniProt P06477 19-838; P10185 20-224) (complex)”, in test [1], the pKd was 7.57, the koff was determined as 0.005 s⁻¹ and the kon turned out to be 207000 M⁻¹ s⁻¹. In test [2], the pKd is 7.92, the koff is 0.0018 s⁻¹ and the kon worked out at 152000 M⁻¹ s⁻¹.
